# Data: publication PMC5150636, “Isolated pores dissected from human two-pore channel 2 are functional” (Scientific Reports, 2016)
# Biological target: the molecule itself
# Test: SEC; Superdex 200 10/300 GL, buffer A (25 mM Tris, 500 mM NaCl, 0.174% (w/v) DM, pH 7.4), 0.5 ml/min, column calibrated with protein standards; fractions read by SDS PAGE; oligomer size from the elution volume
protein,measurement,value
"human TPC2 DI pore (S212-A337), hexa-histidine-tagged (domain or fragment, UniProt Q8NHX9 212-337, looked up, two-pore channel 2 (TPC2), human, domain I pore region (S5-S6), residues S212-A337, codon-optimised synthetic gene in pET15b; numbers count on the full length channel; No removal of the His tag is described; also called hexaHis-DI pore; DI pore-only protein) SLPEMASVGLLLAIHLCLFTMFGMLLFAGGKQDDGQDRERLTYFQNLPESLTSLLVLLTTANNPDVMIPAYSKNRAYAIFFIVFTVIGSLFLMNLLTAIIYSQFRGYLMKSLQTSLFRRRLGTRAA",stoichiometry N,4
